These results are taken from patent publication US20110046207.

This data set addresses T1, biotinylated human D-C5a (mirror-image C5a) (Homo sapiens) (UniProt P01031).
T1 sequence: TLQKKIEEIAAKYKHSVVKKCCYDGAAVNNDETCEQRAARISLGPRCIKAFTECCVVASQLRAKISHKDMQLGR
As to the kind of experiment: pulldown.

The term Kd denotes the constant that tells how readily two partners part at equilibrium.

“GUGCUGAACACGCCGCGUAGGACUUCAAUGGAGUAGAAUGGGCAGCAC [179-A3]” showed a Kd (37 C, 1 mM MgCl2, 1 mM CaCl2) of 7.2 nM.

On to “GUGCUGCGUUCGGACGUGGCAUGUUCCUUGACAAACGGUUGGCAGCAC [182-C5]”, for which, under “37 C, 1 mM MgCl2, 1 mM CaCl2”, the dissociation constant Kd was found to be 2.2 nM.

Take “AGCGUGCUUGUCCGAUUGGCGGCACCCUUGCGGGACUGGGGAGUACGCU [172-D7-000]”: for the setting “37 C, 1 mM MgCl2, 1 mM CaCl2”, the Kd worked out at 30 nM.

In turn, “GCUGGGCGUGUUUACUUGCUUAAUAGGGGGCCCAGC [185-H3-001]” showed a Kd (37 C, 1 mM MgCl2, 1 mM CaCl2) of 5 nM.

For “GCUGAACACGCCGCGUAGGACCCAAUGGGUAGAAUGGGCAGC [179-A3-015]”, the Kd (reference for type C ranking) was > 7.2 nM.

Take “GUGCUGGGUUCGGACGUGGCAUGUUCCUUGAUAAACGGUUGCCAGCAC [182-A8]”: the Kd (37 C, 1 mM MgCl2, 1 mM CaCl2) was 3.2 nM.

As for “GUGCUUGUCCGAUUGGCGGCACCCUUGCGGGACUGGGGAGUAC [172-D7-002]”, the Kd (six base pair terminal helix) was 108 nM.

With “GUACUGCGUUCGGACGUGGCAUGUUCCUUGACAAACGGUUGGCAGUAC [182-E5]”, the Kd (37 C, 1 mM MgCl2, 1 mM CaCl2) was 2.4 nM.

Regarding “AGCGUGCUCGUCCGAUUGGCGGCACCCUUGCGGGACUGGGGAGUACGCU [172-D7-003]”, the Kd (U to C at 3' end of 5'-terminal stretch) was determined as 372 nM.
